From US20150080549A1 (Chugai, published 2015)
Starred links: 1 amine or outer side, 2 acyl side, 3 side chain; linkers in the order of their positions; H or OH if unused. Positions of bridges follow the written chain, without caps; N, C: chain ends. Non-standard residues stand in square brackets, D forms with d. γEtAbu = 4-(ethylamino)butanoic acid, CCN(CCCC(=O)[*:2])[*:1]; NMeAla(4-thiazolyl) = CN[C@@H](Cc1cscn1)C(=O)O; NMePhe(3-Cl) = CN[C@@H](Cc1cccc(Cl)c1)C(=O)O; Met(O2) = CS(=O)(=O)CC[C@H](N)C(=O)O; NMeF = CN[C@@H](Cc1ccccc1)C(=O)O; FlPu(urea) = not defined here; Phg = N[C@H](C(=O)O)c1ccccc1; NMeS = CN[C@@H](CO)C(=O)O; NMeA = CN[C@@H](C)C(=O)O; βAla = NCCC(=O)O; Sar = CNCC(=O)O

T1: biotinylated Interleukin-6 receptor (IL-6R) (human, UniProt P08887 20-344, limits assumed, biotinylated (method of BMC biotechnology, 2008, 8, 41 and Protein Science, 1999, 8, 921-929); site not stated)
T1 construct: also called human IL-6 receptor; hIL-6R
T1 sequence (looked up): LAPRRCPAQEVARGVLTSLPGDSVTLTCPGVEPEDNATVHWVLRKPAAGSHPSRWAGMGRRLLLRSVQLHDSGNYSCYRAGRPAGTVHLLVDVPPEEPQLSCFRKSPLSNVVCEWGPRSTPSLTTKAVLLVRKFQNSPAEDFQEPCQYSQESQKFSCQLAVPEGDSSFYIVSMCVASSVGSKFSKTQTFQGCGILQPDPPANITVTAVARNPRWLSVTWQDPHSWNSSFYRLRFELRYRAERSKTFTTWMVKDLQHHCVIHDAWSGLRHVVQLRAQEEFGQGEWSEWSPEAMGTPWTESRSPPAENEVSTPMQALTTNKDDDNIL

T2: biotinylated Recombinant Human TNFR1/Fc Chimera (SinoBiological, Catalog Number 10872-H03H) (human, UniProt P19438 22-211, biotinylated with EZ-Link NHS-PEG4-Biotin (Thermo scientific 21329); sites not stated)
T2 construct: Bought Fc chimera; also called tumor necrosis factor receptor 1; Fc part of the bought chimera not given
T2 sequence (looked up): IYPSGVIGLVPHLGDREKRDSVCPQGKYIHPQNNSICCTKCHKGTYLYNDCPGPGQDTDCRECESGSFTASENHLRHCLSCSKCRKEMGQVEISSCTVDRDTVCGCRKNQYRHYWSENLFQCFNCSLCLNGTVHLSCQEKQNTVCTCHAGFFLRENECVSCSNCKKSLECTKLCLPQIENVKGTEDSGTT

B1: Compound SP854 (peptide)
peptide: APVI[NMeF][Met(O2)]P[NMePhe(3-Cl)]V[Met(O2)]DP[Sar]S-OH
modifications: lactam N-11
SMILES: CC[C@H](C)[C@@H]1NC(=O)[C@H](C(C)C)NC(=O)[C@@H]2CCCN2C(=O)[C@H](C)NC(=O)C[C@@H](C(=O)N2CCC[C@H]2C(=O)N(C)CC(=O)N[C@@H](CO)C(=O)O)NC(=O)[C@H](CCS(C)(=O)=O)NC(=O)[C@H](C(C)C)NC(=O)[C@H](Cc2cccc(Cl)c2)N(C)C(=O)[C@@H]2CCCN2C(=O)[C@H](CCS(C)(=O)=O)NC(=O)[C@H](Cc2ccccc2)N(C)C1=O
notes: Chemically synthesized, HPLC purified
B2: Compound SP859 (peptide)
peptide: APVI[NMeF][Met(O2)]P[NMePhe(3-Cl)]V[Met(O2)]DP[Sar]S-{NH(CH2)2NMe2}
modifications: lactam N-11
notes: Made from Compound SP854 by amidation of the C-terminal carboxylic acid
B3: Compound SP855 (peptide)
peptide: AII[NMeAla(4-thiazolyl)]WP[NMePhe(3-Cl)][Met(O2)][dY][βAla]DP[NMePhe(3-Cl)]S-OH
modifications: lactam N-11
SMILES: CC[C@H](C)[C@@H]1NC(=O)[C@H](C)NC(=O)C[C@@H](C(=O)N2CCC[C@H]2C(=O)N(C)[C@@H](Cc2cccc(Cl)c2)C(=O)N[C@@H](CO)C(=O)O)NC(=O)CCNC(=O)[C@@H](Cc2ccc(O)cc2)NC(=O)[C@H](CCS(C)(=O)=O)NC(=O)[C@H](Cc2cccc(Cl)c2)N(C)C(=O)[C@@H]2CCCN2C(=O)[C@H](Cc2c[nH]c3ccccc23)NC(=O)[C@H](Cc2cscn2)N(C)C(=O)[C@H]([C@@H](C)CC)NC1=O
notes: as for B1
B4: Compound SP856 (peptide)
peptide: [γEtAbu]IVW[NMePhe(3-Cl)][Met(O2)]P[NMePhe(3-Cl)][dY][Met(O2)]D[NMeAla(4-thiazolyl)][NMeA]S-OH
modifications: lactam N-11
SMILES: CC[C@H](C)[C@@H]1NC(=O)CCCN(CC)C(=O)C[C@@H](C(=O)N(C)[C@@H](Cc2cscn2)C(=O)N(C)[C@@H](C)C(=O)N[C@@H](CO)C(=O)O)NC(=O)[C@H](CCS(C)(=O)=O)NC(=O)[C@@H](Cc2ccc(O)cc2)NC(=O)[C@H](Cc2cccc(Cl)c2)N(C)C(=O)[C@@H]2CCCN2C(=O)[C@H](CCS(C)(=O)=O)NC(=O)[C@H](Cc2cccc(Cl)c2)N(C)C(=O)[C@H](Cc2c[nH]c3ccccc23)NC(=O)[C@H](C(C)C)NC1=O
notes: as for B1
B5: SEQ ID NO: PE-6 (TNFR1 binder) peptide (peptide)
peptide: AP[Sar]VITV[NMeS][Phg]SD[NMeA][NMePhe(3-Cl)]SGSGSGS-{FlPu(urea)}
modifications: lactam N-11; reading uncertain
notes: Translated in ECL Translation Solution T, cyclized and desulfurized; not isolated; also called translation product of template DNA DME-6
B6: SEQ ID NO: PE-5 (TNFR1 binder) peptide (peptide)
peptide: AP[Sar]IIVS[NMeS][Phg][Phg]D[NMeAla(4-thiazolyl)]TSGSGSGS-{FlPu(urea)}
modifications: lactam N-11; reading uncertain
notes: Translated in ECL Translation Solution T, cyclized and desulfurized; not isolated; also called translation product of template DNA DME-5
B7: SEQ ID NO: PE-4 (TNFR1 binder) peptide (peptide)
peptide: A[dY]IW[Met(O2)]S[Met(O2)][NMePhe(3-Cl)]V[NMeF]DT[NMePhe(3-Cl)]SGSGSGS-{FlPu(urea)}
modifications: lactam N-11; reading uncertain
notes: Translated in ECL Translation Solution T, cyclized and desulfurized; not isolated; also called translation product of template DNA DME-4

Target: T1, biotinylated Interleukin-6 receptor …
Experiment: SPR, Biacore T200, 20 C; biotinylated IL-6R captured on sensor chip CAP, peptide as analyte; KD=koff/kon from curve fitting
Description: An SPR experiment for analyzing the interaction between synthetic peptides and IL-6R was conducted using Biacore T200 (GE healthcare) at 20° C. Synthetic peptides were added to the immobilized IL-6R, and the interaction was evaluated.
CAP reagent was immobilized on a Biacore sensor chip, Series S sensor chip CAP (GE healthcare), according to the instructions, and biotinylated IL-6R was further immobilized.
The obtained sensorgrams were analyzed using T200 evaluation software (GE healthcare) or Scrubber2 (Biologic software). First, solvent correction for DMSO and double reference (correction by subtracting sensorgrams of flow cells where IL-6R was not immobilized and sensorgrams in the case where the buffer was added) were carried out. Second, binding rate constants (kₒₙ) and dissociation rate constants (koff) were calculated from curve fitting to the corrected sensorgrams, and KDs were determined by the relational expression KD=koff/kₒₙ.

Kd [µM] | Binder
1.8 | B1
0.55 | B2
5.3 | B3
13 | B4

Target: T2, biotinylated Recombinant Human TNFR1/Fc …
Experiment: ECL immunoassay (MSD): biotinylated target on streptavidin plate, translated FlPu(urea)-labelled cyclic peptide (Translation Solution T), anti-fluorescein and SULFO-TAG anti-mouse antibody; no-template control 293
Description: 0.5 μl of a 200 mM EDTA solution (pH 8.0, Nacalai, 14362-24) and 0.5 μl of a 100 mM TCEP solution (pH 6.6) were added to 5 μL of the translation mixture, and the mixture was incubated at 37° C. for 120 minutes to cause cyclization reaction. 11 μL of desulfurization buffer (15 mM cysteine, 36 mM TCEP) was added to the cyclization product, and the mixture was incubated at 42° C. for 1 minutes, after which 4 μL of 1 M VA-044 (Wako, CAS No. 27776-21-2) was added and the mixture was allowed to stand at 42° C. for 1 hour.
Immunoassay was carried out using the above peptide solution for ECL assay. 500 nM biotinylated target protein was added at 10 μL per well to MSD Streptavidin MULTI-ARRAY 384-well plate (Meso Scale Discovery, L25SB-1), and reaction was conducted at room temperature for 1 hour with shaking at 500 rpm to immobilize the target protein. 2% skim milk PBS was added at 50 μL per well, and blocking was carried out by allowing to stand at room temperature for 2 hours. The reaction solution was removed and the plate was washed with PBS containing 0.05% Tween 20 (PBST) three times, after which 10 μL of the peptide solution for ECL assay was added and the plate was shaken at room temperature for 50 minutes at 500 rpm. The reaction solution was removed and the plate was washed with PBST three times, after which 10 μL of IgG Fraction Monoclonal Mouse Anti-Fluorescein (Jackson ImmunoResearch, 200-002-037) diluted to 0.5 μg/mL with 2% skim milk PBS was added, and reaction was conducted at room temperature for 50 minutes with shaking at 500 rpm. […] The reaction solution was removed and the plate was washed with PBST three times, after which 35 μl, of 2× Read Buffer T (Meso Scale Discovery, R92TC-3) was added and measurement was carried out using SECTOR Imager 2400 (Meso Scale Discovery).

Binder | ECL signal
B5 | 3610
B6 | 3760
B7 | 32000
